Laboratory results reported in PMC4619449, “Heterodimerization of Two Pathological Mutants Enhances the Activity of Human Phosphomannomutase2” (PLoS ONE, 2015).

T1: F119L phosphomannomutase2 (human) (UniProt O15305)
T1 sequence: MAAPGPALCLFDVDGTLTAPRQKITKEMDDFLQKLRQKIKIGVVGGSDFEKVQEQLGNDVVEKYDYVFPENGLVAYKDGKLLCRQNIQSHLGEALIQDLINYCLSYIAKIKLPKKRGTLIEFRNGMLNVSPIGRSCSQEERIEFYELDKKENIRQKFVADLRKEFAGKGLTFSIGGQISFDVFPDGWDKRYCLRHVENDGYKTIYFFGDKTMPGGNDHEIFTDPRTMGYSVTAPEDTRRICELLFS


How the values were obtained:
[1] = molecular target: T1, F119L phosphomannomutase2 (human)
[2] = molecular target: the molecule itself; assay: SEC; analytical, BioSep-SEC-S3000 column, Hepes 20 mM pH 7.5, NaCl 150 mM, MgCl2 5 mM, room temperature, 0.5 ml/min; wt-PMM2 10 μg, F119L 7 μg, or mixture of 5 μg wt-PMM2 and 3.5 μg F119L

corrected specific phosphoglucomutase activity (per amount of F119L) of Superdex75 fractions, F119L:R141H 1:1 to 1:3.5, compared with F119L alone; 5 μM Glc-1,6-P2 and 40 μM Glc-1P [1] [fold]	Binder	binding result [2]
3	R141H phosphomannomutase2 (enzyme) MAAPGPALCLFDVDGTLTAPRQKITKEMDDFLQKLRQKIKIGVVGGSDFEKVQEQLGNDVVEKYDYVFPENGLVAYKDGKLLCRQNIQSHLGEALIQDLINYCLSYIAKIKLPKKRGTFIEFRNGMLNVSPIGRSCSQEEHIEFYELDKKENIRQKFVADLRKEFAGKGLTFSIGGQISFDVFPDGWDKRYCLRHVENDGYKTIYFFGDKTMPGGNDHEIFTDPRTMGYSVTAPEDTRRICELLFS	–
–	wild type phosphomannomutase2 (enzyme, human, UniProt O15305-1 1-246, looked up, Phosphomannomutase2 (PMM2), human, UniProt entry name PMM2_HUMAN; also called wt-PMM2; PMM2) MAAPGPALCLFDVDGTLTAPRQKITKEMDDFLQKLRQKIKIGVVGGSDFEKVQEQLGNDVVEKYDYVFPENGLVAYKDGKLLCRQNIQSHLGEALIQDLINYCLSYIAKIKLPKKRGTFIEFRNGMLNVSPIGRSCSQEERIEFYELDKKENIRQKFVADLRKEFAGKGLTFSIGGQISFDVFPDGWDKRYCLRHVENDGYKTIYFFGDKTMPGGNDHEIFTDPRTMGYSVTAPEDTRRICELLFS	binds
–	F119L phosphomannomutase2 (enzyme, human, UniProt O15305-1 1-246, looked up, Phosphomannomutase2 (PMM2), human, pathological variant p.Phe119Leu (rs80338701); also called hypomorphic mutant) MAAPGPALCLFDVDGTLTAPRQKITKEMDDFLQKLRQKIKIGVVGGSDFEKVQEQLGNDVVEKYDYVFPENGLVAYKDGKLLCRQNIQSHLGEALIQDLINYCLSYIAKIKLPKKRGTLIEFRNGMLNVSPIGRSCSQEERIEFYELDKKENIRQKFVADLRKEFAGKGLTFSIGGQISFDVFPDGWDKRYCLRHVENDGYKTIYFFGDKTMPGGNDHEIFTDPRTMGYSVTAPEDTRRICELLFS	binds
